# Test results published in article PMC10887324, “Electrochemical Aptasensing Platform for the Detection of Retinol Binding Protein-4”.
# How the values were obtained:
# [1] = molecular target: T1, Retinol binding protein-4 (RBP-4) (UniProt P02753 19-201); assay: EIS (electrochemical impedance, Langmuir linearization); same measurement as the Kd row; 2 mM MgCl2; 0.1 M PBS + 2 mM MgCl2, Fe(CN)6 3-/4- redox probe, aptamer on gold electrode with MCH; aptamer folded at 70 C 1 min then ice 10 min; immobilization at room temp
# [2] = molecular target: T1, Retinol binding protein-4 (RBP-4); assay: EIS (electrochemical impedance, Langmuir linearization); folded aptamer, 0.1 uM in immobilization; 2 mM MgCl2; Fe(CN)6 3-/4- probe; 0.1 M PBS + 2 mM MgCl2, Fe(CN)6 3-/4- redox probe, aptamer on gold electrode with MCH; aptamer folded at 70 C 1 min then ice 10 min; immobilization at room temp
binder,measurement,setting,value
"ACAGTAGTGAGGGGTCCGTCGTGGGGTAGTTGGGTCGTGG (ssDNA, 5'-thiol (-SH)) [Apt-RBP-4]",Ka,[1],2e+07 M⁻¹
same,Kd,[2],50 nM
